Sequences and labels used below:
B1: SEQ ID NO: 6 (peptide)
peptide: cyclo([3AzaPhe4AcPip]W[Phe(4-COOH)]G[Pro(trans-4-NH2)][Trp(βS-Me,4-F)]D[dNMeA]G[Bip(4'-COOH)]KL[dA][hTyr])
SMILES: CC(=O)N1CCN(c2ccc(C[C@@H]3NC(=O)[C@H](CCc4ccc(O)cc4)NC(=O)[C@@H](C)NC(=O)[C@H](CC(C)C)NC(=O)[C@H](CCCCN)NC(=O)[C@H](Cc4ccc(-c5ccc(C(=O)O)cc5)cc4)NC(=O)CNC(=O)[C@@H](C)N(C)C(=O)[C@H](CC(=O)O)NC(=O)[C@H]([C@@H](C)c4c[nH]c5cccc(F)c45)NC(=O)[C@@H]4C[C@@H](N)CN4C(=O)CNC(=O)[C@H](Cc4ccc(C(=O)O)cc4)NC(=O)[C@H](Cc4c[nH]c5ccccc45)NC3=O)cn2)CC1
B2: SEQ ID NO: 63 (peptide)
peptide: cyclo([Bip(4'-COOH)]W[Phe(4-COOH)]G[Pro(trans-4-NH2)][Trp(βS-Me,4-F)]D[dNMeA]G[Bip(4'-COOH)][hQ]L[dA][hTyr])
SMILES: CC(C)C[C@@H]1NC(=O)[C@H](CCCC(N)=O)NC(=O)[C@H](Cc2ccc(-c3ccc(C(=O)O)cc3)cc2)NC(=O)CNC(=O)[C@@H](C)N(C)C(=O)[C@H](CC(=O)O)NC(=O)[C@H]([C@@H](C)c2c[nH]c3cccc(F)c23)NC(=O)[C@@H]2C[C@@H](N)CN2C(=O)CNC(=O)[C@H](Cc2ccc(C(=O)O)cc2)NC(=O)[C@H](Cc2c[nH]c3ccccc23)NC(=O)[C@H](Cc2ccc(-c3ccc(C(=O)O)cc3)cc2)NC(=O)[C@H](CCc2ccc(O)cc2)NC(=O)[C@@H](C)NC1=O
B3: SEQ ID NO: 62 (peptide)
peptide: cyclo([Bip(4'-COOH)]W[Phe(4-COOH)]G[Pro(trans-4-NH2)][Trp(βS-Me,4-F)]D[dNMeA]G[Bip(4'-COOH)][hLys]L[dA][hTyr])
SMILES: CC(C)C[C@@H]1NC(=O)[C@H](CCCCCN)NC(=O)[C@H](Cc2ccc(-c3ccc(C(=O)O)cc3)cc2)NC(=O)CNC(=O)[C@@H](C)N(C)C(=O)[C@H](CC(=O)O)NC(=O)[C@H]([C@@H](C)c2c[nH]c3cccc(F)c23)NC(=O)[C@@H]2C[C@@H](N)CN2C(=O)CNC(=O)[C@H](Cc2ccc(C(=O)O)cc2)NC(=O)[C@H](Cc2c[nH]c3ccccc23)NC(=O)[C@H](Cc2ccc(-c3ccc(C(=O)O)cc3)cc2)NC(=O)[C@H](CCc2ccc(O)cc2)NC(=O)[C@@H](C)NC1=O
B4: SEQ ID NO: 60 (peptide)
peptide: cyclo([Bip(4'-COOH)]W[Phe(4-COOH)]G[Pro(trans-4-NH2)][Trp(βS-Me,4-F)]D[dNMeA]G[Bip(4'-COOH)]FL[dA][hTyr])
SMILES: CC(C)C[C@@H]1NC(=O)[C@H](Cc2ccccc2)NC(=O)[C@H](Cc2ccc(-c3ccc(C(=O)O)cc3)cc2)NC(=O)CNC(=O)[C@@H](C)N(C)C(=O)[C@H](CC(=O)O)NC(=O)[C@H]([C@@H](C)c2c[nH]c3cccc(F)c23)NC(=O)[C@@H]2C[C@@H](N)CN2C(=O)CNC(=O)[C@H](Cc2ccc(C(=O)O)cc2)NC(=O)[C@H](Cc2c[nH]c3ccccc23)NC(=O)[C@H](Cc2ccc(-c3ccc(C(=O)O)cc3)cc2)NC(=O)[C@H](CCc2ccc(O)cc2)NC(=O)[C@@H](C)NC1=O
B5: SEQ ID NO: 66 (peptide)
peptide: cyclo([Bip(4'-COOH)]W[Phe(4-COOH)]G[Pro(trans-4-NH2)][Trp(βS-Me,4-F)]D[dNMeA]G[Bip(4'-COOH)]KL[dA][h3Pal(5-CN)])
SMILES: CC(C)C[C@@H]1NC(=O)[C@H](CCCCN)NC(=O)[C@H](Cc2ccc(-c3ccc(C(=O)O)cc3)cc2)NC(=O)CNC(=O)[C@@H](C)N(C)C(=O)[C@H](CC(=O)O)NC(=O)[C@H]([C@@H](C)c2c[nH]c3cccc(F)c23)NC(=O)[C@@H]2C[C@@H](N)CN2C(=O)CNC(=O)[C@H](Cc2ccc(C(=O)O)cc2)NC(=O)[C@H](Cc2c[nH]c3ccccc23)NC(=O)[C@H](Cc2ccc(-c3ccc(C(=O)O)cc3)cc2)NC(=O)[C@H](CCc2cncc(C#N)c2)NC(=O)[C@@H](C)NC1=O
B6: SEQ ID NO: 65 (peptide)
peptide: cyclo([Bip(4'-COOH)]W[Phe(4-COOH)]G[Pro(trans-4-NH2)][Trp(βS-Me,4-F)]D[dNMeA]G[Bip(4'-COOH)]K[Ala(4-THP)][dA][hTyr])
SMILES: C[C@@H]1C(=O)NCC(=O)N[C@@H](Cc2ccc(-c3ccc(C(=O)O)cc3)cc2)C(=O)N[C@@H](CCCCN)C(=O)N[C@@H](CC2CCOCC2)C(=O)N[C@H](C)C(=O)N[C@@H](CCc2ccc(O)cc2)C(=O)N[C@@H](Cc2ccc(-c3ccc(C(=O)O)cc3)cc2)C(=O)N[C@@H](Cc2c[nH]c3ccccc23)C(=O)N[C@@H](Cc2ccc(C(=O)O)cc2)C(=O)NCC(=O)N2C[C@H](N)C[C@H]2C(=O)N[C@@H]([C@@H](C)c2c[nH]c3cccc(F)c23)C(=O)N[C@@H](CC(=O)O)C(=O)N1C
B7: SEQ ID NO: 64 (peptide)
peptide: cyclo([Bip(4'-COOH)]W[Phe(4-COOH)]G[Pro(trans-4-NH2)][Trp(βS-Me,4-F)]D[dNMeA]G[Bip(4'-COOH)]K[Ala(4-THP)][dA][h3Pal(5-CN)])
SMILES: C[C@@H]1C(=O)NCC(=O)N[C@@H](Cc2ccc(-c3ccc(C(=O)O)cc3)cc2)C(=O)N[C@@H](CCCCN)C(=O)N[C@@H](CC2CCOCC2)C(=O)N[C@H](C)C(=O)N[C@@H](CCc2cncc(C#N)c2)C(=O)N[C@@H](Cc2ccc(-c3ccc(C(=O)O)cc3)cc2)C(=O)N[C@@H](Cc2c[nH]c3ccccc23)C(=O)N[C@@H](Cc2ccc(C(=O)O)cc2)C(=O)NCC(=O)N2C[C@H](N)C[C@H]2C(=O)N[C@@H]([C@@H](C)c2c[nH]c3cccc(F)c23)C(=O)N[C@@H](CC(=O)O)C(=O)N1C
B8: SEQ ID NO: 67 (peptide)
peptide: cyclo([Bip(4'-COOH)]W[Phe(4-COOH)]G[Pro(trans-4-NH2)][Trp(βS-Me,4-F)]D[dNMeA]G[Bip(4'-COOH)]KL[dA][hTyr])
SMILES: CC(C)C[C@@H]1NC(=O)[C@H](CCCCN)NC(=O)[C@H](Cc2ccc(-c3ccc(C(=O)O)cc3)cc2)NC(=O)CNC(=O)[C@@H](C)N(C)C(=O)[C@H](CC(=O)O)NC(=O)[C@H]([C@@H](C)c2c[nH]c3cccc(F)c23)NC(=O)[C@@H]2C[C@@H](N)CN2C(=O)CNC(=O)[C@H](Cc2ccc(C(=O)O)cc2)NC(=O)[C@H](Cc2c[nH]c3ccccc23)NC(=O)[C@H](Cc2ccc(-c3ccc(C(=O)O)cc3)cc2)NC(=O)[C@H](CCc2ccc(O)cc2)NC(=O)[C@@H](C)NC1=O
B9: SEQ ID NO: 58 (peptide)
peptide: cyclo([Bip(4'-COOH)]W[Phe(4-COOH)]G[Pro(trans-4-NH2)][Trp(βS-Me,4-F)]A[dNMeA]G[Bip(4'-COOH)]KL[dA][hTyr])
SMILES: CC(C)C[C@@H]1NC(=O)[C@H](CCCCN)NC(=O)[C@H](Cc2ccc(-c3ccc(C(=O)O)cc3)cc2)NC(=O)CNC(=O)[C@@H](C)N(C)C(=O)[C@H](C)NC(=O)[C@H]([C@@H](C)c2c[nH]c3cccc(F)c23)NC(=O)[C@@H]2C[C@@H](N)CN2C(=O)CNC(=O)[C@H](Cc2ccc(C(=O)O)cc2)NC(=O)[C@H](Cc2c[nH]c3ccccc23)NC(=O)[C@H](Cc2ccc(-c3ccc(C(=O)O)cc3)cc2)NC(=O)[C@H](CCc2ccc(O)cc2)NC(=O)[C@@H](C)NC1=O
B10: SEQ ID NO: 61 (peptide)
peptide: cyclo([Bip(4'-COOH)]W[Phe(4-COOH)]G[Pro(trans-4-NH2)][Trp(βS-Me,4-F)]D[dNMeA]G[Bip(4'-COOH)][h4Pal]L[dA][hTyr])
SMILES: CC(C)C[C@@H]1NC(=O)[C@H](CCc2ccncc2)NC(=O)[C@H](Cc2ccc(-c3ccc(C(=O)O)cc3)cc2)NC(=O)CNC(=O)[C@@H](C)N(C)C(=O)[C@H](CC(=O)O)NC(=O)[C@H]([C@@H](C)c2c[nH]c3cccc(F)c23)NC(=O)[C@@H]2C[C@@H](N)CN2C(=O)CNC(=O)[C@H](Cc2ccc(C(=O)O)cc2)NC(=O)[C@H](Cc2c[nH]c3ccccc23)NC(=O)[C@H](Cc2ccc(-c3ccc(C(=O)O)cc3)cc2)NC(=O)[C@H](CCc2ccc(O)cc2)NC(=O)[C@@H](C)NC1=O
B11: SEQ ID NO: 68 (peptide)
peptide: cyclo([Bip(4'-COOH)]W[Phe(4-COOH)]G[Pro(trans-4-NH2)][Trp(βS-Me,4-F)]D[dNMeA]G[Bip(4'-COOH)]KL[dDab][hTyr])
SMILES: CC(C)C[C@@H]1NC(=O)[C@H](CCCCN)NC(=O)[C@H](Cc2ccc(-c3ccc(C(=O)O)cc3)cc2)NC(=O)CNC(=O)[C@@H](C)N(C)C(=O)[C@H](CC(=O)O)NC(=O)[C@H]([C@@H](C)c2c[nH]c3cccc(F)c23)NC(=O)[C@@H]2C[C@@H](N)CN2C(=O)CNC(=O)[C@H](Cc2ccc(C(=O)O)cc2)NC(=O)[C@H](Cc2c[nH]c3ccccc23)NC(=O)[C@H](Cc2ccc(-c3ccc(C(=O)O)cc3)cc2)NC(=O)[C@H](CCc2ccc(O)cc2)NC(=O)[C@@H](CCN)NC1=O
B12: SEQ ID NO: 59 (peptide)
peptide: cyclo([Bip(4'-COOH)]W[Phe(4-COOH)]G[Pro(trans-4-NH2)][Trp(βS-Me,4-F)]D[dNMeA]G[Bip(4'-COOH)][4Pal]L[dA][hTyr])
SMILES: CC(C)C[C@@H]1NC(=O)[C@H](Cc2ccncc2)NC(=O)[C@H](Cc2ccc(-c3ccc(C(=O)O)cc3)cc2)NC(=O)CNC(=O)[C@@H](C)N(C)C(=O)[C@H](CC(=O)O)NC(=O)[C@H]([C@@H](C)c2c[nH]c3cccc(F)c23)NC(=O)[C@@H]2C[C@@H](N)CN2C(=O)CNC(=O)[C@H](Cc2ccc(C(=O)O)cc2)NC(=O)[C@H](Cc2c[nH]c3ccccc23)NC(=O)[C@H](Cc2ccc(-c3ccc(C(=O)O)cc3)cc2)NC(=O)[C@H](CCc2ccc(O)cc2)NC(=O)[C@@H](C)NC1=O

*1 amine or outer side, *2 acyl side, *3 side chain or, on linkers, in order; H or OH if unused. [ ]: non-standard residue; d: D form. 3AzaPhe4AcPip = (S)-3-(6-(4-acetylpiperazin-1-yl)pyridin-3-yl)-2-aminopropanoic acid, CC(=O)N1CCN(c2ccc(C[C@H](N[*:1])C(=O)[*:2])cn2)CC1; Pro(trans-4-NH2) = O=C([C@@H]1C[C@@H](N[*:3])CN1[*:1])[*:2]; Trp(βS-Me,4-F) = C[C@@H](c1c[nH]c2cccc(F)c12)[C@H](N)C(=O)O; Bip(4'-COOH) = N[C@@H](Cc1ccc(-c2ccc(C(=O)O)cc2)cc1)C(=O)O; hQ = L-homoglutamine, NC(=O)CCC[C@H](N[*:1])C(=O)[*:2]; Phe(4-COOH) = N[C@@H](Cc1ccc(C(=O)O)cc1)C(=O)O; h3Pal(5-CN) = N#Cc1cncc(CC[C@H](N)C(=O)O)c1; Ala(4-THP) = N[C@@H](CC1CCOCC1)C(=O)O; hTyr = N[C@@H](CCc1ccc(O)cc1)C(=O)O; h4Pal = N[C@@H](CCc1ccncc1)C(=O)O; 4Pal = N[C@@H](Cc1ccncc1)C(=O)O; hLys = NCCCCC[C@H](N)C(=O)O; dDab = NCC[C@@H](N)C(=O)O; dNMeA = CN[C@H](C)C(=O)O

This assay addresses Recombinant human IL-1β (BioLegend 579404) (human, UniProt P01584 117-269). Put plainly: cell-based or functional assay.
B1: the “MRC5 IC50” value amounted to 0.0666 nM. Next, B2: 0.063 nM. The result for B3 reads 0.283 nM; that for B4, 0.0689 nM; that for B5, 0.0299 nM. With B6, the “MRC5 IC50” value was 0.0158 nM. For B7, the “MRC5 IC50” value was determined as 0.0182 nM. Turning to B8, the “MRC5 IC50” value is 0.046 nM. The result for B9 reads 0.247 nM; that for B10, 0.312 nM; that for B11, 0.296 nM. Consider B12, for which the “MRC5 IC50” value stood at 0.0362 nM.

Values taken from patent publication US20230406885A1, “CYCLIC PEPTIDES FOR TRAPPING INTERLEUKIN-1 BETA” (MERCK SHARP & DOHME LLC, priority 2022, published 2023).
